Columns and labels:
[1] = molecular target: tf2h1_human GTF2H1 (UniProt P32780)
[2] = molecular target: cbp_human CREBBP (UniProt Q92793)
cbp_human CREBBP, sequence (Q92793 whole entry, looked up): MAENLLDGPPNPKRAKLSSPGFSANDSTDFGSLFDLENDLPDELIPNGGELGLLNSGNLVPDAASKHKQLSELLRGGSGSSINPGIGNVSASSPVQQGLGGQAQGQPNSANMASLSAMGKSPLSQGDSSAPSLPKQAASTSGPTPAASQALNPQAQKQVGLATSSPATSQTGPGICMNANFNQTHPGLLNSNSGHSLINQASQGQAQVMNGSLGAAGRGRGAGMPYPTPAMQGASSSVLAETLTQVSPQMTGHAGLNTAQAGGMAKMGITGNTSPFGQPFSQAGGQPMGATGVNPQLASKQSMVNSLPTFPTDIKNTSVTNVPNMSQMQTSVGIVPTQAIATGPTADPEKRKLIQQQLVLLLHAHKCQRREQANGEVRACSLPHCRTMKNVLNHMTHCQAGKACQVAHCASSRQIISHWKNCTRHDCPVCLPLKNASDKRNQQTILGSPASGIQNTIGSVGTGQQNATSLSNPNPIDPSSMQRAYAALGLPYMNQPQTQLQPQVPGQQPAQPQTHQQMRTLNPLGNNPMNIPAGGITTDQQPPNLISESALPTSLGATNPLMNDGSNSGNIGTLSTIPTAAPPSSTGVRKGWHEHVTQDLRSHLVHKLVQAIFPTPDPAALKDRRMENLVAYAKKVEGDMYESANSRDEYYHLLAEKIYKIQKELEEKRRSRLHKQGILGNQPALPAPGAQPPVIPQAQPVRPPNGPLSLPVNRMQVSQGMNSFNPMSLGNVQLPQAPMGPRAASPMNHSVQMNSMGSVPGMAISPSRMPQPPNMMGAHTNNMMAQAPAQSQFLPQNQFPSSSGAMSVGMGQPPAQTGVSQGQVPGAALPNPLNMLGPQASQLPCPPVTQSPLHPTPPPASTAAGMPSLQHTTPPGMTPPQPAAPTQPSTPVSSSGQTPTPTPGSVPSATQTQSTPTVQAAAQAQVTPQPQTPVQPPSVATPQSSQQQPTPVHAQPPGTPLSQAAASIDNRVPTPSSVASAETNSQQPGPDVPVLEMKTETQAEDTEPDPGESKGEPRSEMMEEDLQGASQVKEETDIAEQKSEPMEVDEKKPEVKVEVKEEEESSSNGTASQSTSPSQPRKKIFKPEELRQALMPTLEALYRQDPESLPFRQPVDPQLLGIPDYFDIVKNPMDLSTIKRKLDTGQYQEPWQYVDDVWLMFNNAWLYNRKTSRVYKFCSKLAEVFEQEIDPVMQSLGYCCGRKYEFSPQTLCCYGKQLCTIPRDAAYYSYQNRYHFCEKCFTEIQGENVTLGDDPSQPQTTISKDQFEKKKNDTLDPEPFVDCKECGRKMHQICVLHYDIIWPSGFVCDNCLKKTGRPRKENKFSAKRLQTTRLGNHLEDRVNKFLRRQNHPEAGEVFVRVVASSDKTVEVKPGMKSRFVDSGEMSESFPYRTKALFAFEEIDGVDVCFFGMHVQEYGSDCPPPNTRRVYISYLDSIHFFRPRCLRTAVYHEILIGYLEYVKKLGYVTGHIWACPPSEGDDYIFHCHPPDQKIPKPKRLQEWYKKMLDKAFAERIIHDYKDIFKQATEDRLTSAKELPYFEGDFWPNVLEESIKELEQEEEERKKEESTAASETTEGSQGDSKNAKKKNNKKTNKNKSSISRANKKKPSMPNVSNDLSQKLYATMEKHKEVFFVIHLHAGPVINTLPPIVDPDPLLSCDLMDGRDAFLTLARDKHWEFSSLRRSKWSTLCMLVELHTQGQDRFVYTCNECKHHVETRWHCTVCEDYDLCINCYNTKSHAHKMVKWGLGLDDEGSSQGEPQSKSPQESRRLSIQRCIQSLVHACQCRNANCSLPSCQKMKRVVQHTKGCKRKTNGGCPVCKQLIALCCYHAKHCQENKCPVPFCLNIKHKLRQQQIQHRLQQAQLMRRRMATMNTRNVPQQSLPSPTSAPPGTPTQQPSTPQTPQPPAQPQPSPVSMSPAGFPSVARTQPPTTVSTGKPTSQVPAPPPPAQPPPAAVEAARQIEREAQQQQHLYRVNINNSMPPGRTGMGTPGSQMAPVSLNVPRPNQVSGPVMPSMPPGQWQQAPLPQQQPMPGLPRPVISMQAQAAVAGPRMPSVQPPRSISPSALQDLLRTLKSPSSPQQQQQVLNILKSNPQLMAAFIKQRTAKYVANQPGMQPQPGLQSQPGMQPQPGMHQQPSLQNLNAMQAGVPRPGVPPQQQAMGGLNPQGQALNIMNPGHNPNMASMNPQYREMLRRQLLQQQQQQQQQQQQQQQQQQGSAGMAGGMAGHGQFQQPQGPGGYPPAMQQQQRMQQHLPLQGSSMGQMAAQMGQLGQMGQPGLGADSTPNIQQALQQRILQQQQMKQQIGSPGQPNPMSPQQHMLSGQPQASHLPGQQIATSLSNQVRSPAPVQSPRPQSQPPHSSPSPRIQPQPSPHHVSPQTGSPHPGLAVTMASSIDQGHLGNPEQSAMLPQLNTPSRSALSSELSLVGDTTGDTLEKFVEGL

Krueppel-like factor 1 (Homo sapiens), Q13351 W73P, sequence (Q13351 whole entry W73P): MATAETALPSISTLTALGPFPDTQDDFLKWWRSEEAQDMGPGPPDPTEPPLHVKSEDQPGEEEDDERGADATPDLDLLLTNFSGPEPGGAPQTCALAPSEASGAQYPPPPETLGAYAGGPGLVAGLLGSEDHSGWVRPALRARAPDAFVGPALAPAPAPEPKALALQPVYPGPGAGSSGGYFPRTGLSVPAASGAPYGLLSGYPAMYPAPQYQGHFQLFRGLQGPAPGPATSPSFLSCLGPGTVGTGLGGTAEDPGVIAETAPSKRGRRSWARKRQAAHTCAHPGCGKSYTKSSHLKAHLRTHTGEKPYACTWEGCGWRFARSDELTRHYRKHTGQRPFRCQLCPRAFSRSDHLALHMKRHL
tf2h1_human GTF2H1, sequence (P32780 whole entry): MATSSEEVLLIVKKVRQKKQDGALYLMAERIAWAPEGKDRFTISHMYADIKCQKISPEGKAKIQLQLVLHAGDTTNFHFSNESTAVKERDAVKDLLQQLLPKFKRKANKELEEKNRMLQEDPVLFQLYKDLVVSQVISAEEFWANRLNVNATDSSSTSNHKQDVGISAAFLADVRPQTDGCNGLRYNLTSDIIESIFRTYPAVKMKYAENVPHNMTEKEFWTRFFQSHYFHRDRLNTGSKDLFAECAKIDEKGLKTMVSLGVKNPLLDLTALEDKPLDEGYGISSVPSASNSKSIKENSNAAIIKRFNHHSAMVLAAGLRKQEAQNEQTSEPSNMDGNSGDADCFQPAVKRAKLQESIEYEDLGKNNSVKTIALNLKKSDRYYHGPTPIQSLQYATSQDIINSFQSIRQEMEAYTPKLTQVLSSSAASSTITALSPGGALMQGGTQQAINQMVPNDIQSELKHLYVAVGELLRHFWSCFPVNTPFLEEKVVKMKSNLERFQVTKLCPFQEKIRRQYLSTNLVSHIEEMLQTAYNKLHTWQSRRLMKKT

effect of a mutation on the interaction [1]: disrupting interaction strength
effect of a mutation on the interaction [2]: disrupting interaction strength
Substance: Krueppel-like factor 1 (Homo sapiens), Q13351 W73P
